Data reported in the supplement of paper PMC9170038.

Columns and labels:
MS2 coat protein [1] = experiment: apparent KD of MS2 coat protein, switch ON state; designed switch direction (-1 OFF switch, 1 ON switch): 1; higher = weaker reporter binding; settings: FMN input: 0 or 200 uM; Eterna round: R93 (includes R88 designs)
In short: (§1)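 In 100 mM Tris-HCl pH 7.5 with 80 mM KCl and 4 mM MgCl2, and without or with constant ligand, SNAP-549-labelled MS2 coat protein was titrated in twofold steps from 0.7 or 1.5 nM to 3 µM. Per-step times went from 0.8–1.5 h down to 10–20 min. The RNA switches were transcribed on-chip from Illumina sequencing clusters, and apparent KD is the per-design median of normalised cluster binding-curve fits.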

MS2 coat protein [2] = experiment: apparent KD of MS2 coat protein, switch OFF state (with FMN for OFF switches, without FMN for ON switches); designed switch direction (-1 OFF switch, 1 ON switch): 1; higher = weaker reporter binding; settings: FMN input: 0 or 200 uM; Eterna round: R93 (includes R88 designs)
In short: as §1

Sequence | apparent KD of MS2 coat protein (MS2 coat protein [1]) [nM] | apparent KD of MS2 coat protein (MS2 coat protein [2]) [nM]
AAAAUACAUGAGGAUCACCCAUGUGAGAAAAACGCAGGAUAUGCCCGUUGAAAAAGGCGGGCAGAAGGGUGCCGAA [SameState1-III] | 69.8 | 50.6
GAAAAACAUGAGGAUCACCCAUGUAAGAUAAACACAGGAUAUGCGAAAAUAAAUAAAUAAGCAGAAGGGUGAAAAG [Mat - Same State 1 - Tesla mod - 78] | 25.7 | 37.4
AAAAAACAUGAGGAUCACCCAUGUGAGAACAUGGGAGGAUAUACGAAGACGAAAGUCGAAGUAGAAGGCCUAAAAG [Garnet 79] | 994 | 91.2
UGGAAGGAGAGAGAGGAUAUCCAAAGGAAAACAUGAGGAUCACCCAUGUAGAAGGUAGGAAAUUGGGAGAAGGCUCAAGAGAGAG [salish99-ss2-117] | 17 | 27.5
AACAAUCUAUCUGAGGAUAUCAUGUCAAAGACAUGAGGAUCACCCAUGUGCAGGAAAACUGCUCAUGAGAAGGCAGAUAGAUUGA [SS2: 1110] | 464 | 167
AGGAAACAUGAGGAUCACCCAUGUAAAAAAUAGGGAGGAUAUACUAGAAGAAACAAAAUAGUAGAAGGUCCAAAAA [75%, Ex sub1, 24] | 18.4 | 27.6
AUGAAAGUAACACAGGAUAUCCAGGAUACAACAUGAGGAUCACCCAUGUACAUACGAACGUAUAAGGAGAAGGGUGGAUGAUCUUC [ss2-2] | 50.7 | 59.3
AUGAAGGAGAGAGAGGAUAUCCAAAGGGAAACAUGAGGAUCACCCAUGUAGAAGGUAGGAAAUUGGGAGAAGGCUCAAGAGAGAG [salish99-ss2-111] | 25.4 | 26.9
AAAAGACAUGAGGAUCACCCAUGUGAAAACGUAGGAGGAUAUGUCGUGAAAAAAGACUUGGCAGAAGGCCUGUGUC [SS1 - 43] | 47 | 90.7
AAAAGACAUGAGGAUCACCCAUGUAAAAACGUAGGAGGAUAUGUCUUGAAAAAAGACUUGACAGAAGGCCUGUGUC [SS1 - 53] | 23 | 34.6
AAUAUACAUGAGGAUCACCCAUGUGAAAAUAUGGGAGGAUAUCGGAAAAAAAAAAAAAAACGAGAAGGCCCAAAAA [SS! 1 MT 13] | 20.8 | 119
AAAAGACAUGAGGAUCACCCAUGUCAAAACGUAGGAGGAUAUGUAUGGAAAACAUGCUGUACAGAAGGCCUGUGUC [SS1 - 28] | 14.2 | 17
AGAGUAAACAGAGAGGAUAUCCAAUAGAAAACAUGAGGAUCACCCAUGUGAAAGAUAAUAAAAUGGGAGAAGGCUCACAAUAAGA [Topaz 43] | 24.6 | 49.4
AAGAAAAAAAGGCAGGAUAUCCAAAAAAAAACAUGAGGAUCACCCAUGUAAAAAUAAAAAAAAUGGGAGAAGGGCCAAAAAAGAA [Mat - Same State 2 - Mod - 154] | 13.8 | 22.1
AAAACACAUGAGGAUCACCCAUGUGCCUAACUCGCAGGAUAUUUCUCGAUUAAAUGAUAGGAAGAAGGGUGAUAAA [Nob's Hobby 37 - Jieux - Same State 1] | 110 | 39.4
UCAGAACCGACAAAGGAUAUAGCGGGUGAGACAUGAGGAUCACCCAUGUAUGCAGAACUCAUCCUCUAGAAGGUUGAGACGGAUA [Maedanon] | 213 | 93.6
UAAGACGUGCAUCAGGAUAUGUUCCGAGGCACAUGAGGAUCACCCAUGUGGACGAAGCCUCGGGCACAGAAGGGAUCACUCAGAC [Laarma] | 17.2 | 20.4

Sequence | apparent KD of MS2 coat protein (MS2 coat protein [1]) [nM] | apparent KD of MS2 coat protein (MS2 coat protein [2]) [nM]
GAAAAACAUGAGGAUCACCCAUGUGUAAACAAGGGAGGAUAUACAAAGACGUAAGUCAAAGUAGAAGGCCUAAAAG [Garnet 38] | 25.6 | 47.1
AAACCACAUGAGGAUCACCCAUGUGAAAAAAAUACAGGAUAUGGAAACACGAAAGUGAAACCAGAAGGGUGAAAAA [77%, Mat - Mod of Eli, 28] | 13.4 | 16.6
GAAAAACAUGAGGAUCACCCAUGUAGAAAUAUGGGAGGAUAUACAAAGACGAGAGUCAAAGUAGAAGGCCUAAAAG [Mat - Same State 1 - Eli mod - D9] | 28.4 | 86.7
UCCACCAUGGUACAGGAUAUGUCAGACCCGACAUGAGGAUCACCCAUGUGCGGUUCUUUUCCAACGCAGAAGGGUGCAUAGGUGG [Xevetia] | 17.1 | 43.9
AAUAAUUAUACGAAGGAUAUCGGUAAUUAGACAUGAGGAUCACCCAUGUAAUAAGGUUAAAUAAACGAGAAGGUCGAGGGUGAAA [JR_SS002_Sub501] | 66.9 | 41.5
AAAAAACAUGAGGAUCACCCAUGUGAAAAUAUGGGAGGAUAUACAAACACGAAAGUGAAAGUAGAAGGCCUAAAAA [SS! MT 16] | 19.7 | 167
AAAAAACAUGAGGAUCACCCAUGUCGAAAGACGUGAGGAUAUGUACAGACUUCGGUCUGUACAGAAGGCACGUCAA [SS1 - 1044] | 17.3 | 24.8
AGGUAACAUGAGGAUCACCCAUGUACCGAUAAUGCAGGAUAUCGACACGAAAAUACGUGUCGAGAAGGGCAUGAAA [SS1 MT 23] | 14.3 | 13.5
AAAAGGGCGACACAGGAUAUGUUGACCCUAACAUGAGGAUCACCCAUGUGCAUUUAGGGUCGUGCGCAGAAGGGUGCAGCUCGGA [Enatin] | 21.1 | 41.8
GUCCAACAUGAGGAUCACCCAUGUGCAUGACACUGAGGAUAUGGGACUAAAGGUGCUGGACCAGAAGGCAGAAGAA [Diatquorbi] | 48.3 | 94.9
GACAGACAUGAGGAUCACCCAUGUACAAACGUACAAGGAUAUGUGUGGAAACCGUACUAUACAGAAGGUGUAUGUC [SS1 - 91] | 42 | 80.5
UAGAGACAUGAGGAUCACCCAUGUAGGAUUAUGGGAGGAUAUACAAAGACGAGAGUCAGAGUAGAAGGCCUAGGAG [salish99-ss1-135(!)] | 22 | 64.9
AAAAAAUAAAAAAAGGAUAUAAAAGGUAGUACAUGAGGAUCACCCAUGUUCUACCAAAAAAUAAAAAAGAAGGAAAAAUAAAAAA [SS2: MS2 15] | 17.6 | 16.4
GACAAACAUGAGGAUCACCCAUGUAGACAUAUGGGAGGAUAUACACAGACGAAAGUCAAAGUAGAAGGCCUACAAG [77%, Mat - Mod of Eli - With 4 more C's] | 29.3 | 91.3
GGAAAACAUGAGGAUCACCCAUGUUAGUGUCAUUAAGGAUAUGGGCUUAAGAAUUUGAGACUAGAAGGUGAUGCGC [Soisla] | 21.8 | 49.2
AUAAAAUAAAGUGAGGAUAUCUAUAAUAAAACAUGAGGAUCACCCAUGUUAAAAAAAAGAUCAUGGGAGAAGGCAUAAAAUAAAU [SS2 M 31] | 7.51 | 21.7
GAAAAACAUGAGGAUCACCCAUGUGAGAAUAUGGAAGGAUAUACAAAGACGAAAGUCAAAGUAGAAGGUCUAAAAG [Mat - Same State 1 - Eli mod - D15] | 28.9 | 20.5
